How the values were obtained:
[1] = target: T1, human PD-1 (hPD-1) expressed on cells (human, UniProt Q15116 25-288)
[2] = target: T1, human PD-1 (hPD-1) expressed on cells; assay: cell based RBA (hPD-1/hPD-L1): blocking of Biotin-hPD-L1 binding to CHOK1-hPD-1 cells, flow cytometry
hPD-1mIg fusion protein [3] = target: T2, hPD-1mIg fusion protein (human; mouse, UniProt Q15116 25-170); assay: SPR, Biacore T200, hPD-1mIg immobilized at 33 RU on CM5, antibody as analyte
T2 construct: extracellular domain; also called hPD-mIg; not shown: CH2-CH3 domain of mouse IgG2a heavy chain (plasmid pmIgG)
T2 sequence (Q15116 25-170): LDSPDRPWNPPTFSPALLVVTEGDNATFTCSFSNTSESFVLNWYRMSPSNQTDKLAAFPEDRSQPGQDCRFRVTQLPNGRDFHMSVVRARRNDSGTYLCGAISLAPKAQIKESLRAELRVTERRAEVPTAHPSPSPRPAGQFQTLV

[4] = target: T1, human PD-1 (hPD-1) expressed on cells; assay: cell-based or functional assay
[5] = target: T1, human PD-1 (hPD-1) expressed on cells; assay: flow cytometry, FACS binding to CHOK1-hPD-1 cells
Description: (§1) The bindings of the antibodies to hPD-1 and cross-reactivity to cynomolgus monkey PD-1 (cPD-1) were tested using hPD-1 or cPD-1 expressing CHOK1 cells by flow cytometry. CHOK1-hPD-1, CHOK1-cPD-1 and CHOK1 blank cells were incubated with a serial dilution of test articles followed by Alexa Fluor® 488 conjugated goat anti-human IgG (H+L) antibody, and analyzed using a FACSCanto II (BD Biosciences, San Jose, Calif.).

[6] = target: T3, cynomolgus monkey PD-1 (cPD-1) expressed on cells (cynomolgus monkey, UniProt B0LAJ3 25-288); assay: flow cytometry, FACS binding to CHOK1-cPD-1 cells
T3 construct: also called CHOK1-cPD-1; PD-1 on cynomolgus monkey T cell
T3 sequence (B0LAJ3 entry or part of it limits assumed): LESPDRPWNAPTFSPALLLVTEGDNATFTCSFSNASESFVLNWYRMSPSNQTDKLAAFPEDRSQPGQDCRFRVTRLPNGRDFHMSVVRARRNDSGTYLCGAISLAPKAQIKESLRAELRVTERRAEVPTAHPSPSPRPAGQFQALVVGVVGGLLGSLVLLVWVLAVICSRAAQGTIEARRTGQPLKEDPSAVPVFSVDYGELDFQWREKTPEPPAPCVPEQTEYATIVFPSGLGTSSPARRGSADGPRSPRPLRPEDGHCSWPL
Description: as §1

hPD-1mIg fusion protein [7] = target: T2, hPD-1mIg fusion protein; assay: SPR, Biacore T100, hPD-1mIg immobilized on CM5, antibody as analyte
Description: The binding affinity and kinetics of the humanized PD-1 mAbs interact with hPD-1 protein was assessed with Biacore T100 (GE Healthcare Life Sciences). […] Nine different concentrations were tested for each sample. Detailed binding kinetic parameters (association rate, Ka, dissociation rate, Kd, and affinity constant, KD) can be determined by full kinetic analysis.

T1 sequence (Q15116 25-288): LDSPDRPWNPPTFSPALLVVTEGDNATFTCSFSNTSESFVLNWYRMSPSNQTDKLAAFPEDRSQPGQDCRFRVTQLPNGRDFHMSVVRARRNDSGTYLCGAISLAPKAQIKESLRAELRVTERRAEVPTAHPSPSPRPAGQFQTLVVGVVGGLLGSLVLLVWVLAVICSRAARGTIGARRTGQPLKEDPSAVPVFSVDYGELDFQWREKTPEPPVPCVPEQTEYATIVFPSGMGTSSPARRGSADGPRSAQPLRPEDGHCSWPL

EC50 (read off the curve) [5] | EC50 (read off the curve) [6] | Molecule | other results
 |  | control human IgG4 (antibody) | EC50 of luciferase signal (RLU), PD-1/PD-L1 Blockade Bioassay with Jurkat-PD1 and CHO-PD-L1 cells; the Ctrl IgG4 curve is flat at about 270000 RLU and never rises [1]: 12400 ng/mL; Inhibition rate [2]: 4.8%
 |  | Variant 3 (TY101) (humanized, VH variant a / VK variant c) (antibody, V domains shown, hIgG4 is the negative control; also called mutant combination 3) VH: EVQLVESGGGLVQPGGSLRLSCAASGFTFSSYTMSWVRQAPGKGLEWVSYISHGGGDTYYADSVKGRFTISRDNSKNTLYLQMNSLRAEDTAVYYCARHSGYERGYYYVMDYWGQGTLVTVSS VL: DIQLTQSPDSLSVSLGERATINCKASESVDYYGFSFLNWFQQKPGQPPKLLIYAASNRQSGVPDRFSGSGSGTDFTLTISSLQAEDVAVYFCQQSKEVPWTFGQGTKLEIKR | fold slower dissociation rate Kd than the two commercial antibodies (Pembrolizumab, Nivolumab) (hPD-1mIg fusion protein [3]): 10 times; EC50 of luciferase signal (RLU), PD-1/PD-L1 Blockade Bioassay with Jurkat-PD1 and CHO-PD-L1 cells [4]: 224 ng/mL
~0.9 nM | ~2 nM | TY101-01-09 (antibody, V domains shown, TY101 is Variant 3 (VH a, VK c); isotype control is hIgG4; also called TY101 clone TY101-01-09) VH: EVQLVESGGGLVQPGGSLRLSCAASGFTFSSYTMSWVRQAPGKGLEWVSYISHGGGDTYYADSVKGRFTISRDNSKNTLYLQMNSLRAEDTAVYYCARHSGYERGYYYVMDYWGQGTLVTVSS VL: DIQLTQSPDSLSVSLGERATINCKASESVDYYGFSFLNWFQQKPGQPPKLLIYAASNRQSGVPDRFSGSGSGTDFTLTISSLQAEDVAVYFCQQSKEVPWTFGQGTKLEIKR | 
~0.9 nM | ~2 nM | TY101-4G1 (antibody, V domains shown, TY101 is Variant 3 (VH a, VK c); isotype control is hIgG4; also called TY101 clone TY101-4G1) VH: EVQLVESGGGLVQPGGSLRLSCAASGFTFSSYTMSWVRQAPGKGLEWVSYISHGGGDTYYADSVKGRFTISRDNSKNTLYLQMNSLRAEDTAVYYCARHSGYERGYYYVMDYWGQGTLVTVSS VL: DIQLTQSPDSLSVSLGERATINCKASESVDYYGFSFLNWFQQKPGQPPKLLIYAASNRQSGVPDRFSGSGSGTDFTLTISSLQAEDVAVYFCQQSKEVPWTFGQGTKLEIKR | 
~0.9 nM | ~2 nM | TY101-04-T3-05 (antibody, V domains shown, TY101 is Variant 3 (VH a, VK c); isotype control is hIgG4; also called TY101 clone TY101-04-T3-05) VH: EVQLVESGGGLVQPGGSLRLSCAASGFTFSSYTMSWVRQAPGKGLEWVSYISHGGGDTYYADSVKGRFTISRDNSKNTLYLQMNSLRAEDTAVYYCARHSGYERGYYYVMDYWGQGTLVTVSS VL: DIQLTQSPDSLSVSLGERATINCKASESVDYYGFSFLNWFQQKPGQPPKLLIYAASNRQSGVPDRFSGSGSGTDFTLTISSLQAEDVAVYFCQQSKEVPWTFGQGTKLEIKR | 
 |  | Variant 4 (humanized, VH variant b / VK variant a) (antibody, V domains shown, also called mutant combination 4) VH: EVQLVESGGGLVQPGGSLRLSCAASGFTFSSYTMSWVRQAPGKGLEWVSYISHGGGDTYYPDSVKGRFTISRDNSKNTLYLQMNSLRAEDTAVYYCARHSGYERGYYYVMDYWGQGTLVTVSS VL: DIVMTQSPDSLAVSLGERATINCKSSESVDYYGFSFLNWFQQKPGQPPKLLIYAASNRESGVPDRFSGSGSGTDFTLTISSLQAEDVAVYYCQQSKEVPWTFGQGTKLEIKR | kon (hPD-1mIg fusion protein [7]): 119000 M⁻¹ s⁻¹

Source: patent US20190144543A1 (TAYU HUAXIA BIOTECH MEDICAL GROUP, published 2019)
